The supplement of paper PMC12042874
± gives the uncertainty stated by the source.

test: amyloid nucleation score (Sup35N fusion, yeast selection) (log enrichment); library NNK1; higher = more nucleation; inactive = no reads after selection
Procedure, shortened: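 Nucleation score: DiMSum log enrichment of output over input reads, centred on the mode score of non-aggregating sequences. Only sequences with at least 100 input reads were kept. Reads came from Illumina sequencing of plasmid inserts before and after 7 days of growth at 30°C without adenine and uracil, in psi-negative yeast expressing Sup35N fused to peptides of 20 random codons after 24 hours of induction with 100 μM copper sulfate.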

Point of comparison: TIFVPGALVDFAAGGTHQLI, amyloid nucleation score -0.088 ± 1.3. Against it:
- WSLVDDPLVFERLFWPCYQ — within error, 0.142 ± 0.31
- CSNRWCLKTRVERVMERGSV — within error, 0.218 ± 0.54
- LTCKMDIDKVWVGDMLYS — within error, -0.677 ± 0.62
- IMRSMSGWFGFVMLFDAS — within error, -0.598 ± 0.79
- TVIRESIPKFWFYTLGMLKV — within error, -0.6 ± 0.35
- IGMWSHWR — within error, 0.137 ± 0.39
- FLLGSYILWECNHGSHHMSG — within error, 0.06 ± 0.23
- TIWDSRTSFVYS — within error, 0.254 ± 0.56
- CLQDMFFTNELSFAGTLLIS — within error, 0.049 ± 0.34
- GRLPLTKWASMTRVLMYLLR — within error, 0.652 ± 0.47
- CKDFRRAVVNEFPVSVSFYC — within error, 0.922 ± 0.9
- FEKTIHFV — within error, 0.43 ± 0.36
- GQWGVVHIQQGVQYCATIRG — within error, 0.331 ± 0.69
- VRFKGMWHKQ — within error, -1.04 ± 1.1
- MILHLDVSISIVLD — higher, 1.58 ± 0.15
- VKLTNLGFRGKFDVVDCHWI — within error, -0.546 ± 0.34
- LRTNTWCYGESSRLWGWCGG — within error, 0.067 ± 1.2
- SPTTKCLPSERSSINCNLMT — within error, 0.311 ± 0.68
- EYNSFWTVVSMILTVKWLSG — within error, 0.502 ± 0.24
- MITIRVLEQDHLSLSLALSY — within error, -0.597 ± 0.57
- TLLYPYMVPLRRKSLWGAVR — within error, 1.36 ± 0.35
- NLGFTRSPHAETSLFTH — within error, 0.235 ± 0.47
- MRLWLIWYISVMLTQNPRLW — within error, 1.22 ± 0.46
- LVIFKLTM — higher, 3.51 ± 0.066
- SLLPDPHYMTQVW — within error, -0.559 ± 0.55
- AGRTILKIILQVLALLAPYK — within error, -0.309 ± 1.4
- IRMVL — within error, 0.697 ± 0.44
- NAACLVLGNVSSFEYSSQMG — higher, 2.41 ± 0.27
- GVFVKGWYWKWGMGDELQAA — within error, 0.182 ± 0.79
- SAVQGCNGRCCYFGRGWWSG — higher, 3.4 ± 0.083
- YMRSLFCISTQLSRAILVLP — within error, 0.478 ± 1
- LIEGRGIRGLVCCFSISFA — higher, 8.375 ± 0.048
- RFKRWGKR — within error, 0.39 ± 0.41
- MIRFKQT — within error, -0.651 ± 0.45
- TIVRGSNYRPPVWPSDY — within error, -0.535 ± 1.1
- GYSYFPNYHVFRVHE — within error, 1.27 ± 0.54
- FYIVCRNFKTYLPSLGF — within error, -1.12 ± 2.4
- LGYEGWYTRVIYGKVALWME — within error, -0.215 ± 0.59
- PFTYYFEVQLILRKT — within error, 0.773 ± 0.79
- WDLCISINYSVFLNLACSV — higher, 3.25 ± 0.098
- MSPLYNDFWYSCRIYKGEVM — within error, 0.606 ± 0.55
- VCYGVLPFEEWKMSFSACVT — within error, 0.369 ± 0.37
- QHHSRRMNLGC — within error, -0.407 ± 0.32
- VSEDVFLWVKLSLTAGSEGR — within error, -0.973 ± 0.4
- LYFGNTGKGNFRQVSRLKHS — within error, 0.116 ± 0.73
- CSLLSAPPVDSLWGTESRLI — within error, -0.804 ± 0.73
- TSMVNI — within error, 0.084 ± 0.88
- GLICNIDVRMRFVFMVRGSP — higher, 2.45 ± 0.21
- QINLSGVSVDEWLSLWYGVL — within error, 0.468 ± 0.72
- YCCYLMCYSRRILDGP — within error, 0.174 ± 0.43
- YNKVDM — within error, -0.316 ± 0.53
- FTRQLWYMSICRYFQLPTFY — higher, 1.95 ± 0.56
- DSCLEGM — within error, 1.5 ± 0.66
- SAAVGLLVHQYRSSELQLFN — within error, 0.136 ± 1
- WSVISIEASLCRQVPLYANT — within error, 0.26 ± 0.65
- GAKEDERSNWSVVNMLGREL — within error, -0.341 ± 0.39
- MLGSYLHVDSGNCTKVLRTV — within error, 0.326 ± 0.41
- FGRVRCLESEICSCGFFVDE — higher, 3.03 ± 0.15
- CIVVYLSLY — higher, 3.32 ± 0.099
- DLFICSSARAVNKIFRVLHA — within error, 0.511 ± 0.91
- VYHSCSDMCFKAFQVNTYQC — within error, 1.16 ± 0.66
- YVSDFKADTATLSSDLCQLA — within error, -0.183 ± 0.73
- FSMVLSSTMDLRRELLWNSV — within error, -0.299 ± 0.73
- HIRCHVRTGEAARHRQVAQY — within error, 0.136 ± 0.39
- WTAWADNSACSLCGQN — within error, 0.859 ± 0.73
- FCWHAFLSVTRFGRKIFFRF — within error, 0.426 ± 0.35
- EGNMNEWTCLSCRSRAEEAR — within error, -0.255 ± 0.9
- ACLATNCVSFANFASCCWGW — higher, 7.154 ± 0.059
- YGQMVIFGPVMLMAVLTW — higher, 3.33 ± 0.093
- LCYFQGSWYLVRCAIALTYV — within error, 0.327 ± 0.48
- YWGLQPFMIY — within error, 0.272 ± 0.74
- QVLQNCRGTFDDRILLFNGI — within error, -0.288 ± 0.8
- LMYQSFRLTGSYVVIFLYES — within error, -0.543 ± 1.1
- VDNSCFRGT — within error, -0.391 ± 0.66
- FKSVFVRTIHATYIVSWAN — within error, -0.413 ± 1.5
- ESMWVGLKINAVSNYR — within error, 0.3 ± 0.55
- SNKSSSDIDCVYLENCSTSG — within error, 1.43 ± 0.36
- KSEYWHSCYVANSPYDYRTV — within error, -0.422 ± 1.2
- DMNNNIVSKSSFLGDVRVIY — within error, -0.19 ± 1.2
- MKVRQDRKPYWVAESAMCVC — within error, -0.261 ± 0.59
- RENYRAGTFVYGSPRLGPAW — within error, 0.44 ± 0.88
- NYLERHMQHPMRTHVFRGQL — within error, 0.129 ± 0.72

For QGCPRVWRSQSCCGVGGVIP, the amyloid nucleation score was “inactive”.
For VATRYWSRLCTMFVHSTRTT, the amyloid nucleation score was “inactive”.
With FRVFIYPMWRSMWCFGYKEG the amyloid nucleation score was “inactive”.
